For one substance, activity (fold repression) results are on record in patent US20020053092.

The data set deals with MeCP2 (Homo sapiens). Put plainly: cell_activity. The note with it: 5mC at CpG (SssI); S2 cells with Sp1; methylated promoter alone repressed 3-fold; binding inferred from repression.

For the substance cyclin A1 promoter, SssI methylated, the activity (fold repression) was determined as 12.
